Here are results for 41 sequences from the nanobody polyreactivity screen of Harvey et al. (2022).

A short description of this data set: yeast display, Sf9 membrane polyspecificity reagent, FACS + sequencing; frameworks hold sequencing errors. The method in brief:
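Using colony PCR, genes from sorted yeast display clones were amplified, then sequenced on MiSeq at 2 × 250 and filtered by CDR length. The clones had been stained with 10% biotinylated, detergent-solubilized Sf9 membrane reagent for 1 hour at 4 °C and sorted by FACS into low and high (top ~1%) gates on anti-HA and streptavidin fluorescence. Polyreactivity labels come from the gate of origin.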
As to “QVQLEESGGGLVQAGGSLRLSCAASGFTFERNAMGWYRQAPGKERELVAAISWSGGSTYYADSVKGRFTISRDNAKNTVYLQMNSLKPEDTAVYYCAAYQWGYWYGYRMDYWGQGTQVTVSS”, the “polyreactivity (PSR sort gate)” value is given as “high polyreactivity”. The value for “QVQLEESGGGLVQAGGSLRLSCAASGFTFGRYPLGWYRQAPGKERELVAAITRGSGGTYYADSVKGRFTISRDNAKNTVYLQMNSLKPEDTAVYYCNTASYRGYDYWGQGTQVTVSS” was “high polyreactivity”; that for “QVQLEESGGGLVQAGGSLRLSCAASGFTFRYYAMGRYRQAPGKVRELVAVISRTGGSTNFADSVKGRFTISRDNAKKTVYLQMNSLKPEDTAVYYCNAVARYQTKYRYEYWGQGTQETVSS” was “high polyreactivity”. The value for “QVQLEESGGGLVQAGGSLRLSCAASGFTFSPNAMGWYRQAPGKVRELVAAIDWIGGSTYYADSVKWRFTISRDNAKNTVYLQMKSLNTEDTAVYLCTADWVYWHYLTYLVTFDYWGQGTQVTVSS” was “low polyreactivity”; that for “QVQLEESGGGLVQAGGSLRLSCAASGFTFSRNAMGWYRKAPGKERQLVARISSRGGSTYYADSVKGRFTISRDNAKKTVYLQMNSLKPEDTAVYYCARDPVGTTAARYNYWGQGTQVTVSS” was “high polyreactivity”. Regarding “QVQLEESGGGLVQAGGSLRLSCAASGFTFTPNAMGWYRQAPGKERELVAAINWSGGRTYYADSVKGRFTISRDNAKNTVYLQMNSLKPEDTAVYYCNVLKGRSYYPGMDYWGQGTQVTVSS”, the “polyreactivity (PSR sort gate)” value is given as “high polyreactivity”. Turning to “QVQLEESGGGLVQAGGSLRLSCAASGFTFVDYVMGWYRQAPGKERELVAAISRRAGRTYYADSVKGRFTNSRDNAKNTVYFQMNSLKREDTAVYSCAAYLSRSYYAYDYWGQGTQVTVSS”, the “polyreactivity (PSR sort gate)” value is “high polyreactivity”. In the case of “QVQLEESGGGLVQAGGSLRLSCAASGFTFVPYAMGWYRQAPGKERELVARITWSGGSTYYADSVKGRFTISRDNAKNTVYLQMNSLKPEDTAVYYCNLDTRYPGYWRVFAKNNYWGQGTQVTVSS”, the “polyreactivity (PSR sort gate)” value is reported as “high polyreactivity”. On to “QVQLEESGGGLVQAGGSLRLSCAASGFTFYLYAMGWYRQAPGKERELVASISSGGRTYYADSVKGRFTISRDNAKNTVYLQMNSLKPEDTAVYYCAVSPYSRRKYEYYYWGQGTQVTVSS”, for which the “polyreactivity (PSR sort gate)” value is “high polyreactivity”.

On to “QVQLEESGGGLVQAGGSLRLSCAASGFTIGYNAKGWYRQATRKERELVAAIRSTGSTNYADSVKGRFTISRDYAKNTVYLQMNSLKPEDTAVYYGAAGRNAAIVYDYDYWGQGTQVTVSS”, for which the “polyreactivity (PSR sort gate)” value is given as “low polyreactivity”. With “QVQLEESGGGLVQAGGSLRLSCAASGFTLDTYAMGWYRQAPGKERELVAAITSRGGTTYYADSVKGRFTISRDNAKNTVYLQMNSLKPEDTAVYYCNAVTKRWWYRTGYGYWGQGTQVTVSS”, the “polyreactivity (PSR sort gate)” value is recorded as “high polyreactivity”. With “QVQLEESGGGLVQAGGSLRLSCAASGFTLRGYAMGWYRQAPGKERELVAAINGGGSTYYADSVKGRFTISRDNAKNTVYLQMNSLKPEDTAVYYCAVRIRKTAFRVLRYNYWGQGTQVTVSS”, the “polyreactivity (PSR sort gate)” value is “high polyreactivity”. Take “QVQLEESGGGLVQAGGSLRLSCAASGGTFDEYAMGWSRQAPGKERELVATISWNSGSTYYADSVKGRFTISRDNAKNTVYLQMNSLKPEDTAVYYCATGRNVGVWSDDYWGQGTQVTVSS”: the “polyreactivity (PSR sort gate)” value is “high polyreactivity”.

As to “QVQLEESGGGLVQAGGSLRLSCAASGGTFGWYAMGWYRPAPGTERELVAAITSSGGTTFYADSVKGRFTISRDTAKNTVYLQMNSLKPEDTAVYYCAKRGKRPTRYKLGKYDYWGQGTQVTVSS”, the “polyreactivity (PSR sort gate)” value is on record as “high polyreactivity”. In the case of “QVQLEESGGGLVQAGGSLRLSCAASGIFSRYAMGWDRQAPGKERELVAAISSRGSTYYADSVKGRFTISRDNAKYTVYLQLNSMKPEDTGVYYCAATVGRGKLDYWGQGTQVNVSS” it was “high polyreactivity”; in that of “QVQLEESGGGLVQAGGSLRLSCAASGIIFHEYALGWYRQAPGKERELDASISWNDGSTYADSVKGRFTISRDNAKNTVYLQMNSQKPEDTAVYYCAADYPYYPFSSIYDYWGQGTQVTVSS”, “low polyreactivity”; in that of “QVQLEESGGGLVQAGGSLRLSCAASGIIFRCYCMGWYRQAPGKDRELVATITSGGRTNYADSVKGRFTISRDKAKNTVYLQMNSLNTEDTAVYYCAAARLFAMDYWGQGTQVTVSS”, “low polyreactivity”.

For “QVQLEESGGGLVQAGGSLRLSCAASGIIFRLYAMGRYRQAPGKERELVAAISSGGSTNYADSVKGRFTISRDNAKNTVYLQMNSLKPEDTAVYYCAAGKAHNYDYWGQGTQVTVSS”, the “polyreactivity (PSR sort gate)” value is on record as “low polyreactivity”. In the case of “QVQLEESGGGLVQAGGSLRLSCAASGIISTYYVMGWYRQAPGKERELVAAITGGDSSTYYADSVKGRFTISRDTAKNTVYLQMNSLIPDDTAVYYCAKEYYYARGARYDYWGQGTQVTVSS” it was “low polyreactivity”; in that of “QVQLEESGGGLVQAGGSLRLSCAASGITFDDYTMGWYRQAPGKERELVAAITRSGGSTYYADSVKGRFTISRDTAKITVSLQMNSLKPEDTAVYYCSRVKGRGFKNGYWGQGTKVTVSS”, “high polyreactivity”; in that of “QVQLEESGGGLVQAGGSLRLSCAASGITFLNYAMGWYRQATGKERELVAAISWSGGRTYYADSVKGRFTISRDNAKNTVYLQMNSLKPEDTAVYYCAVRGSWYSEHNYWGQGTQVTVSS”, “high polyreactivity”. In the case of “QVQLEESGGGLVQAGGSLRLSCAASGITFNSYAMGSYRQAPGKERELVAAISGSGSSTYYADSVKGRFTISRDNAKNTVYLQMTSLKPEDTAVYYCAATGYSSWTFYTHEYWGQGTQVTVSS” it was “low polyreactivity”; in that of “QVQLEESGGGLVQAGGSLRLSCAASGLIFITYAMGWYRQAPGKERELVATITLRGGSTYYADSVKGRFTISRDNAKNTVYLQMNSLKPEDTAVYYCAADVGYWGRSRGYPSDDYDYWGQGTQVTVSS”, “low polyreactivity”.

With “QVQLEESGGGLVQAGGSLRLSCAASGLIYSSYAMGWYRQAPGKERELVAAIRSGGNTNYADSVKGRFTISRDNAKNTVYLQMNSLKPEDTAVYYCADGTYSRPYYRTFDHWGQGTQVTVSS”, the “polyreactivity (PSR sort gate)” value is “low polyreactivity”. In the case of “QVQLEESGGGLVQAGGSLRLSCAASGNTFYKYTMGWYRQAPGKERELLAAITWSGGSTYYADSVKGRFTISRDNAKNTVYLQMNSLKPEDTAVYYCNADDYQYKTWYHLDYWGQGTQVTVSS” it was “low polyreactivity”. In the case of “QVQLEESGGGLVQAGGSLRLSCAASGNTSPVNAMGWYRQAPGKERELVAAITQSGGSTYYADSLKGRFTISRDNAKITVYFQMNSLKPQDTAVYYCAADVLGPQYWWYDYWGQGTQVTVSS” it was “low polyreactivity”. The value for “QVQLEESGGGLVQAGGSLRLSCAASGRIFGGNAMGWYRQAPGKERELVAAINSSGGRTYYADSLKGRFTISRDNAKYTVYLQMNSLKTEDTAVYYCSARVVGNWYDYWGQGTQVTVSS” was “high polyreactivity”. Turning to “QVQLEESGGGLVQAGGSLRLSCAASGRIFGRNARGWYRQAPVKERELVAAISWRGGNTYYADSVKGRFTISRDNAKNTVYLQMKSLKAEDTAFYYCNTVQSRNEMGYWGQGTQVTVSS”, the “polyreactivity (PSR sort gate)” value was “high polyreactivity”. In the case of “QVQLEESGGGLVQAGGSLRLSCAASGRIFGSYAMGWYRQAAGNERELVAAITRSGGSTYYADSVKGRFTISRDNAKNTVYLQMNSLTPEDTAVYYCAAYFRFSGSAKFGYWGQGTQVTVSS” it was “high polyreactivity”; in that of “QVQLEESGGGLVQAGGSLRLSCAASGRIFGVNAMGWYRQAPGKERELVAAIRYSGGSTYYADSVKGRFTISRDNAKNTVYLQMNSLKPEDTAVYYCARDVWNYWDGVFQYYSYDFDYWGQGTQVTVSS”, “low polyreactivity”. Turning to “QVQLEESGGGLVQAGGSLRLSCAASGRIFRANAMGRYRQAPGKERELVADITRRGASTYYADSVKGRFTISRDNAKNTVYLQMNSLKPEDTAVYYCNARGWPSSLLYLRDRYQMDYWGQGTQVTVSS”, the “polyreactivity (PSR sort gate)” value is listed as “low polyreactivity”. “QVQLEESGGGLVQAGGSLRLSCAASGRIFRANSMGWYRQEPGKERELVAAISFSGGGTYYADSVKGRFKISRDNAKNTVYLQMNCLKPEDTAVYYCAADWYVYSPYDYWGQGTQVTVSS”: the “polyreactivity (PSR sort gate)” value is “low polyreactivity”. In the case of “QVQLEESGGGLVQAGGSLRLSCAASGRIFSRYAMGWYRQAPGKERELVAAITQSGTSTYYADSVKGRFTISRDNAKNTVYLQMTSLKPEDTAVYYCNAYRQYRYDYWGQGTQVTVSS” it was “low polyreactivity”; in that of “QVQLEESGGGLVQAGGSLRLSCAASGRIFYRYAMGWYRQAPGKERELVAAISSGGSTYYADSVKGRFTISRDNAKNTVYLQMNSLKPDDTAVYYCAATWGRGTYYLYYYWGQGTQVTVSS”, “high polyreactivity”.

Turning to “QVQLEESGGGLVQAGGSLRLSCAASGRLFGDNAMGWYSQAPGKERELVAAISDSGGSTYYADSVKGRFTISRDNAKNTVYLQMNSLKPEDTAVYYCAAEYIVRWYWYYYWGQGTQVTVSS”, the “polyreactivity (PSR sort gate)” value is “high polyreactivity”. Regarding “QVQLEESGGGLVQAGGSLRLSCAASGRPCWLMLWDGIDRRLGKKGSWLPLTASTYYADSVKGRFTISRDNAKNTVYLQMNSLKPEDTAVYYCAADLYYGDYRTLPIADEYDYWGQGTQVTVSS”, the “polyreactivity (PSR sort gate)” value is “low polyreactivity”. As for “QVQLEESGGGLVQAGGSLRLSCAASGRTFALYAMGWYRQAPGKERELVASISWRGGSTYYADSVKGRFTISRDNAKNTVYLQMNSLKPEDTAVYYCAADTWSYGPLNYRLEYWGQGTQVTVSS”, the “polyreactivity (PSR sort gate)” value was “low polyreactivity”. Take “QVQLEESGGGLVQAGGSLRLSCAASGRTFAYYFMGWYRQAPGKERQLVAAISGSGGSTYYADSVKGRFTISRDNAKNTVYLQMNSLKPEDTAVYYCAAQYAYGGYDYWGQGTQVTVSS”: the “polyreactivity (PSR sort gate)” value is “high polyreactivity”. In the case of “QVQLEESGGGLVQAGGSLRLSCAASGRTFDRNTMGWYRQAPGKERELVASITSSGASTYYADSVKGRFTISRDNAKNTVYLQINSLKPVDTSVYYCAARTYTGNYSNSKYYYWGQGTEVTVSS” it was “high polyreactivity”.

As to “QVQLEESGGGLVQAGGSLRLSCAASGRTFGVYAMGWYRQAPGKERELVAGIRWRGGSTYYADSVKGRFTISRDNAKNTVYLQMNSLKPEDTAVYYCAADVYLVKYDYWGQGTQVTVSS”, the “polyreactivity (PSR sort gate)” value is “low polyreactivity”. The value for “QVQLEESGGGLVQAGGSLRLSCAASGRTFIKYAMGWYRQAPVNESELVAAITYSAGSTSYADSVKGRFTISRDNAKNTVYLQMNSRKPVDTAVYYCARRTRSYGYRSDYYYWGQGTQVTVSS” was “low polyreactivity”.
